This note sets out measurements from PMC4611135.

The target of assay [1] is DndE-His (Salmonella enterica serovar Cerro 87). Nature of the assay: pull-down; co-expression of dndDE with His tag on DndE (pDndDEH) in E. coli BL21 (DE3); nickel purification, 15% SDS-PAGE.
The target of assay [2] is DndCDE complex (Salmonella enterica serovar Cerro 87). The assay can be described thus: SEC; DndCDE complex saturated with IscS, purified on Superdex 200; molar ratio by densitometry of the Coomassie-stained SDS-PAGE bands. For orientation: In gel filtration, larger molecules generally elute earlier.

As usually defined, the stoichiometry N is the number of molecules, sites or subunits per partner or assembly. DndD (natural protein) displayed a stoichiometry N in assay [1] of 1 molar ratio.

In the case of “Strep-IscS (from UniProt P0A6B7 1-404) (natural protein)”, in assay [2], the stoichiometry N was determined as 1 molar ratio.
